Substitutions are numbered along the chain they refer to. Read-outs that look alike come from different tables or passages of the source. Bridges are numbered along the chain shown (N, C = ends). Where no end group is shown, it is not given here.
Experiments:
rat MASP-2 = rat MASP-2 (Rattus norvegicus, UniProt Q9JJS8); settings: as disclosed in WO2018127719; cited from earlier work
human MASP-2 = human MASP-2 (Homo sapiens, UniProt O00187); settings: as disclosed in WO2018127719, read-out: inhibitory binding constant (KI) on human MASP-2, cited from earlier work
[1] = molecular target: T1, human MASP-2 catalytic fragment (Homo sapiens, UniProt O00187); experiment: Surface plasmon resonance kinetics and affinity on immobilized human MASP-2 catalytic fragment; format: binding
T1 construct: catalytic enzyme fragments containing the three C-terminal domains: CCP1-CCP2-SP; made in house

fXIa [2] = molecular target: fXIa (Homo sapiens, UniProt P03951); experiment: IC50 on human blood coagulation factor fXIa; format: biochemical; settings: 3.3 nM enzyme
Protocol: The measurements were done using non-binding microtiter plates (Greiner; #655901) in 100 μL final volume. After some pilot experiments to find the proper inhibitor concentration range, the maximal inhibitor concentration was set to 20 μM for MASP-1, 10 μM for fXIa and 40 μM for fIXa and fXIIa inhibition, and twofold serial dilutions were prepared from the proteins of the present invention. To these solutions, […] to reach a previously optimized final concentration, 10 nM for MASP-1, 50 nM for fIXa, 3.3 nM for fXIa and 27.5 nM for fXIIa.
The samples were incubated for 10 minutes at room temperature. After adding the substrate (150 μM Z-Lys-S-Benzyl and 300 μM 4,4′-dithiodipyridine (DTDP) co-substrate for MASP-1; 150 μM Z-Gly-Arg-S-Benzyl and 300 μM DTDP co-substrate for fIXa; 300 μM Cbz-GPR-pNA for fXIa and 100 μM H-D-PFR-pNA for fXIIa). The reaction buffer was 50 mM Tris-HCl, 150 mM NaCl, 5 mM CaCl2), 0.1% PEG-8000 pH 7.4 for MASP-1; 20 mM HEPES, 145 mM NaCl, 0.05% Triton-X100 pH 7.4 for fIXa and fXIa; which was complemented with 5 mM CaCl2) for fXIIa.
The efficacies of the proteins of the present invention were determined in the form of (IC50) values corresponding to inhibitor concentrations that provide 50% inhibition.

human MASP-2cf = molecular target: T2, human MASP-2cf (Homo sapiens, UniProt O00187); experiment: Equilibrium inhibition constant (KI) on human MASP-2 catalytic fragment, Z-L-Lys-SBzl substrate; format: biochemical
T2 construct: catalytic enzyme fragments containing the three C-terminal domains: CCP1-CCP2-SP; made in house

[3] = molecular target: T3, human MASP-2 (in normal human serum) (human, UniProt O00187 16-686); experiment: cell-based or functional assay
[4] = molecular target: T4, rat MASP-2cf CCP1-CCP2-SP (rat, UniProt Q9JJS8 298-685); experiment: SPR, target immobilised
T4 construct: range 298-685; Mw 42309 Da; also called rat MASP-2 catalytic fragment

[5] = molecular target: T5, human MASP-2cf CCP1-CCP2-SP (human, UniProt O00187 298-686, limits assumed); experiment: SPR, target immobilised
T5 construct: domain: CCP1-CCP2-SP; also called human MASP-2 catalytic fragment

MASP-1 = molecular target: T6, MASP-1 (UniProt P48740 298-699, limits assumed); experiment: cell-based or functional assay
T6 sequence (looked up): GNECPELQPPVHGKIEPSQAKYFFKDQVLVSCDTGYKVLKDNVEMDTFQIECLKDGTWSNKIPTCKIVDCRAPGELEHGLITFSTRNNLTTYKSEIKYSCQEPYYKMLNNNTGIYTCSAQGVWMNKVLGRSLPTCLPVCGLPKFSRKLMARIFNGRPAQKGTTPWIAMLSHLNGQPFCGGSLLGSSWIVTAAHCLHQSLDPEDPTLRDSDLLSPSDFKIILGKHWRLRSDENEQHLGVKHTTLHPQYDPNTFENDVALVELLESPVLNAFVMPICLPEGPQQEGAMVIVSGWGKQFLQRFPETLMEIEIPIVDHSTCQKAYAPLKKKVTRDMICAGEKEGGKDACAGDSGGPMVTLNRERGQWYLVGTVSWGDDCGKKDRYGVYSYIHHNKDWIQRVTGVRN

fIXa = fIXa (human, UniProt P00740 47-461); experiment: cell-based or functional assay
fXIIa = molecular target: T7, fXIIa (human, UniProt P00748 20-615, limits assumed); experiment: cell-based or functional assay
T7 sequence (looked up): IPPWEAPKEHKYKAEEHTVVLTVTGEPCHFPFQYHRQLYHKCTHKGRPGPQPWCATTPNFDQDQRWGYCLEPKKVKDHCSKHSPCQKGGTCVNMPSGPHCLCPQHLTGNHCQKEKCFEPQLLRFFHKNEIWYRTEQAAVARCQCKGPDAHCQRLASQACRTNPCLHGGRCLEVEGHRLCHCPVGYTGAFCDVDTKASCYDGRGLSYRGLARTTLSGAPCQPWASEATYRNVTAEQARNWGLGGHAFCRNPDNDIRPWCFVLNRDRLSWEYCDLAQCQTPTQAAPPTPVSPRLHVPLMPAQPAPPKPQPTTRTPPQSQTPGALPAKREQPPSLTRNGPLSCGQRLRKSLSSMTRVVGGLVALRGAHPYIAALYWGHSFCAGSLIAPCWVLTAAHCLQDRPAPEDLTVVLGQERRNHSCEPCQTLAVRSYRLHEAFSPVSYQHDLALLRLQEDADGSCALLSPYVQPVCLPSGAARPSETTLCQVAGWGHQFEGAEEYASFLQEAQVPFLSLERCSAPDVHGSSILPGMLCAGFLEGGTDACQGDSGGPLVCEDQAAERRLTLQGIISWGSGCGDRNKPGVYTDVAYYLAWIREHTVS

fXIa [6] = molecular target: fXIa (human, UniProt P03951 19-625); experiment: cell-based or functional assay
[7] = molecular target: rat MASP-2 (in rat serum) (rat, UniProt Q9JJS8 20-685); experiment: cell-based or functional assay
[8] = molecular target: T3, human MASP-2 (in normal human serum); experiment: cell-based or functional assay; remark: listed apart in the source
[9] = molecular target: T4, rat MASP-2cf CCP1-CCP2-SP; experiment: enzyme inhibition, tight-binding fit
[10] = molecular target: T5, human MASP-2cf CCP1-CCP2-SP; experiment: enzyme inhibition, tight-binding fit

Sequence of human MASP-2 (O00187 16-686): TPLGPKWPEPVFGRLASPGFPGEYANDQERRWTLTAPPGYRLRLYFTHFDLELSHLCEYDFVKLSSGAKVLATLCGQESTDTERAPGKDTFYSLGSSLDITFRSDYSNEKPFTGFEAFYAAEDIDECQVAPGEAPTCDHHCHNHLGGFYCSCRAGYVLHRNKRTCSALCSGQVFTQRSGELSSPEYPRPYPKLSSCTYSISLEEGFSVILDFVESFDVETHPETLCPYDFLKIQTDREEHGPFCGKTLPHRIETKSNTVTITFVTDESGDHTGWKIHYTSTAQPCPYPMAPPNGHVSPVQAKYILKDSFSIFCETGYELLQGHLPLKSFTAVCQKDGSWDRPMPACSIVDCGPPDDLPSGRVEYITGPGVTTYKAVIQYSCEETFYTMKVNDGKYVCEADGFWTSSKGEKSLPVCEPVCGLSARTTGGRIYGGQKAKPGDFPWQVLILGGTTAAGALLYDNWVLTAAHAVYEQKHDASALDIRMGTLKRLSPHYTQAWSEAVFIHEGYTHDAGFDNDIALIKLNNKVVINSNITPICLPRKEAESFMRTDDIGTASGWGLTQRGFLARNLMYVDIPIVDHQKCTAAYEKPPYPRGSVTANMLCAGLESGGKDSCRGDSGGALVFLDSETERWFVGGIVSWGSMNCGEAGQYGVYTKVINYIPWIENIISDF
T3 sequence (O00187 16-686 limits assumed): as the sequence (O00187 16-686) above
Sequence of fIXa (P00740 47-461 limits assumed): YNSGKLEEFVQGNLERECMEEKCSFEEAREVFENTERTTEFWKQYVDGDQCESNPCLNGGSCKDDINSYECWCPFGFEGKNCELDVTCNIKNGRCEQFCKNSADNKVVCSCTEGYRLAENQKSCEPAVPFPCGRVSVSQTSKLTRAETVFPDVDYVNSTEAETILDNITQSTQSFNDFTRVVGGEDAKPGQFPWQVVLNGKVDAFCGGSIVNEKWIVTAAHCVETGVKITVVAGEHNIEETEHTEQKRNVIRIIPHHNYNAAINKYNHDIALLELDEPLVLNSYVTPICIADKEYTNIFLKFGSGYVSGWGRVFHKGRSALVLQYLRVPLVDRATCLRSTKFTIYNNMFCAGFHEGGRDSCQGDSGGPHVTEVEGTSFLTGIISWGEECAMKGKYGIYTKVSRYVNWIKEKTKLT
T4 sequence (Q9JJS8 other isoform, or with tags, fused parts or gaps limits assumed, form in doubt): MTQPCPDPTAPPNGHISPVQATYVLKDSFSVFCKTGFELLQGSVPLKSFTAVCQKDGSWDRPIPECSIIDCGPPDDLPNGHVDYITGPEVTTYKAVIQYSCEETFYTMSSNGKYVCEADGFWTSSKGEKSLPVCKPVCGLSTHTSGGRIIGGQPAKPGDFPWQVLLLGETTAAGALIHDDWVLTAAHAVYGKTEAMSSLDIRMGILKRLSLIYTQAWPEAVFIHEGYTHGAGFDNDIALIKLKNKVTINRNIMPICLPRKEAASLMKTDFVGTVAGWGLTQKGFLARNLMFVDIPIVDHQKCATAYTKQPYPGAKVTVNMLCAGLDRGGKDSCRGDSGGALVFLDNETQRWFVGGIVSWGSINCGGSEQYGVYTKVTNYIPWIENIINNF
Sequence of rat MASP-2 (in rat serum) (Q9JJS8 20-685 limits assumed): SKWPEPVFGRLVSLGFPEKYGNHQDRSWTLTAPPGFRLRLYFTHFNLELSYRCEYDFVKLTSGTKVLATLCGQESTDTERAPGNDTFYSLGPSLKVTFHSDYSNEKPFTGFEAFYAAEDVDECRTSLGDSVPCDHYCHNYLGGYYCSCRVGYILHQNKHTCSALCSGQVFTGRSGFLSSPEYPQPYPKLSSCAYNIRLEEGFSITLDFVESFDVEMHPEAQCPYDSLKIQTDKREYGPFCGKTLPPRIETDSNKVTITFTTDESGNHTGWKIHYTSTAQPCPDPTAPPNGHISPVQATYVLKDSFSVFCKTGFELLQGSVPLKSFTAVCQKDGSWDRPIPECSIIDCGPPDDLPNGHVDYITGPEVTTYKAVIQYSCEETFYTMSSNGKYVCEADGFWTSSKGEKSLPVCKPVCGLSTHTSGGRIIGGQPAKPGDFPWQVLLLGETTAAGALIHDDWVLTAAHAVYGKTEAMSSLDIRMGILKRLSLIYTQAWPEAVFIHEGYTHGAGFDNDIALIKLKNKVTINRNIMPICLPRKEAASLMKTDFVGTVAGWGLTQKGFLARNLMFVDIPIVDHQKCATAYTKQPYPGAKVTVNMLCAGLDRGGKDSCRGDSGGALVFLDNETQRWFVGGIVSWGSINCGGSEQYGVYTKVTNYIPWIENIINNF
T5 sequence (O00187 298-686 limits assumed): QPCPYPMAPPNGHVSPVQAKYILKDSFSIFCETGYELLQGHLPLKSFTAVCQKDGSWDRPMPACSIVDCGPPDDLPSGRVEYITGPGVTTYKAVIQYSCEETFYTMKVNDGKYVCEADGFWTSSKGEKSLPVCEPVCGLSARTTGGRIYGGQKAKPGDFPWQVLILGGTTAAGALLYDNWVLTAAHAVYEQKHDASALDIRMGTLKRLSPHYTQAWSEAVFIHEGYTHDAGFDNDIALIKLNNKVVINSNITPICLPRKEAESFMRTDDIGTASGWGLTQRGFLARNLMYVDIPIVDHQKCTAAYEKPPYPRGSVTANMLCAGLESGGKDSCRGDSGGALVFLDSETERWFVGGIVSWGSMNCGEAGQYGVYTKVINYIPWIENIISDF
Sequence of fXIa (human, UniProt P03951 19-625) (P03951 19-625 limits assumed): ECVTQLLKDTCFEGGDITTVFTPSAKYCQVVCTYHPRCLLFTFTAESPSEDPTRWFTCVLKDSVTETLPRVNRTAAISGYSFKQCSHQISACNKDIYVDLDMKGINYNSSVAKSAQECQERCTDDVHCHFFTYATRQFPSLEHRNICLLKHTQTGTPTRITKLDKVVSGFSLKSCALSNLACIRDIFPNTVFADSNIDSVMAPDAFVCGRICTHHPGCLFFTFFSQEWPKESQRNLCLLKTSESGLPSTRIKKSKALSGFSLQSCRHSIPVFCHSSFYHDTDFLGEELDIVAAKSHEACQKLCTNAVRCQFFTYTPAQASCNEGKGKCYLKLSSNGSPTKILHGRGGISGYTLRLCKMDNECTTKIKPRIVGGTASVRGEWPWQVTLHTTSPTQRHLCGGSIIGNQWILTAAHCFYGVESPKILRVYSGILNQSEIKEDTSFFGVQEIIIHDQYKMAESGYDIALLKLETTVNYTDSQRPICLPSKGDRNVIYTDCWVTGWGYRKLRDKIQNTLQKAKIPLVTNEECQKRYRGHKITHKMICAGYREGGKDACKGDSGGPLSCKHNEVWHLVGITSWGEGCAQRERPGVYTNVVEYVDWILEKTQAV
Sequence of fXIa (Homo sapiens, UniProt P03951) (P03951 388-625 limits assumed): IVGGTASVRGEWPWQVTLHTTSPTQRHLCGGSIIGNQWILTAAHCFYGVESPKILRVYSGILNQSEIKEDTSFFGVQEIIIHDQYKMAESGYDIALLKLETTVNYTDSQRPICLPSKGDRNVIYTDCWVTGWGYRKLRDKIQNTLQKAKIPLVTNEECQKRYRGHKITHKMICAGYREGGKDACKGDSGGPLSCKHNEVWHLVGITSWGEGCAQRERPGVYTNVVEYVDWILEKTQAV
Sequence of fXIa (Homo sapiens, UniProt P03951) (P03951 19-387 partner limits assumed): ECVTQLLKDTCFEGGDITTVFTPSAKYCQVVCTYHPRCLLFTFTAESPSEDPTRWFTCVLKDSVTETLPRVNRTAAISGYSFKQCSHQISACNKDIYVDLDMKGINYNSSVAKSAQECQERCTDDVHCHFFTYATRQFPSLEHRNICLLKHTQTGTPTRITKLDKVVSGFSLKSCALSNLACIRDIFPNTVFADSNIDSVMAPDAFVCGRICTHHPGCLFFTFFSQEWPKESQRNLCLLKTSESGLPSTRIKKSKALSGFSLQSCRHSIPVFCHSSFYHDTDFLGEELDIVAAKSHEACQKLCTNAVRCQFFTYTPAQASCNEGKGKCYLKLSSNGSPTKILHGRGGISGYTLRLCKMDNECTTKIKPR
Sequence of rat MASP-2 (Q9JJS8 20-685): as the sequence (Q9JJS8 20-685 limits assumed) above

KPDFCFLEEDPGPCRAVKRRYFYNNQTKQCERFKYGGCLGNMNNFETLEECKNICEDG (disulfide 5-55, 14-38, 30-51) [EVO2]
Ki (rat MASP-2): ~7 nM | Ki (human MASP-2; listed as WO2018127719 with SEQ ID NO: 14): 7.9 nM | Ki (human MASP-2): ~7 nM

SEQ ID NO: 11 in WO2018127719: highest efficiency human MASP-2 inhibiting Kunitz domain compound of WO2018127719, canonical inhibitory loop sequence GFCRAVKR (KPDFCFLENDPGPCRALKRRYFYNNQTKQCERFYYGGCFGNMNNFETLEECKNICEDG)
Ki (rat MASP-2): 640 nM | Ki (human MASP-2): 2 nM

KPDFCFLENDPGLCRAAAVRYFYNNQTKQCERFYYGGCLGNMNNFVTLEECKNICEDG (disulfide 5-55, 14-38, 30-51) [EVO222]
Kd [1]: 0.045 nM

KPDFCFLENDPGPCRALKRRYFYNNQTKQCERFYYGGCFGNMNNFVTLEECKNICEDG (disulfide 5-55, 14-38, 30-51) [EVO23]
IC50 (fXIa [2]): 500 nM

KPDFCFLENDPGPCRAAAVRYFYNNQTKQCERFYYGGCLGNMNNFVTLEECKNICEDG (disulfide 5-55, 14-38, 30-51) [EVO223]
Ki (human MASP-2cf; 5 nM enzyme, read-out: KI values human MASP-2cf): 0.17 ± 0.07 nM

KPDFCFLENDPGPCRAAKRRYFYNNQTKQCERFYYGGCLGNMNNFVTLEECKNICEDG (disulfide 5-55, 14-38, 30-51) [EVO22a]
Kd ([1]; Human MASP-2 catalytic fragment, SPR, read-out: KD): 0.045 nM

KPDFCFLENDPGPCRALKRRYFYNNQTKQCERFYYGGCFGNMNNFETLEECKNICEDG (disulfide 5-55, 14-38, 30-51) [EVO25]
Ki (human MASP-2cf): 0.17 ± 0.04 nM

KPDFCFLENDPGPCRALKRRYFYNNQTKQCERFYYGGCLGNMNNFETLEECKNICEDG (disulfide 5-55, 14-38, 30-51) [EVO24]
IC50 (fXIa [2]): 500 nM

B1: EVO21 (designed binder)
chain: KPDFCFLENDPGPCRALKRRYFYNNQTKQCERFGYGGCLGNMNNFVTLEECKNICEDG
modifications: not fully specified; ends and bridges not checked
notes: Modified TFPI-D2 Kunitz domain; made as m1
Relative potency (relative human lectin pathway inhibitory efficiency compared to EVO2) [3]: 24 fold relative to EVO2 | Kd [4]: 0.082 nM | Relative affinity [4]: 44.1 fold vs EVO2 | koff [4]: 4.49e-05 s⁻¹ | kon [4]: 545000 M⁻¹ s⁻¹ | Kd [5]: 0.037 nM | Relative affinity [5]: 48 fold vs EVO2 | koff [5]: 4.92e-05 s⁻¹ | kon [5]: 1.32e+06 M⁻¹ s⁻¹ | IC50, enzyme activity on synthetic substrate (MASP-1): 13000 nM | IC50, enzyme activity on synthetic substrate (fIXa): 28000 nM | IC50, enzyme activity on synthetic substrate (fXIIa): 10500 nM | IC50, enzyme activity on synthetic substrate (fXIa [6]): 800 nM | IC50, lectin pathway C4 deposition, rat serum [7]: 10.9 nM | Relative potency, lectin pathway, rat serum [7]: 9.8 fold vs EVO2 | IC50, lectin pathway C4 deposition, human serum [8]: 5.7 nM | Relative potency, lectin pathway, human serum [8]: 24.1 fold vs EVO2

B2: EVO23 (designed binder)
chain: B1 chain with G34Y, L39F
modifications: not fully specified; cysteine pairing not given here
notes: as for B1
Kd [4]: 0.674 nM | Relative affinity [4]: 5.4 fold vs EVO2 | koff [4]: 0.000662 s⁻¹ | kon [4]: 982000 M⁻¹ s⁻¹ | Kd [5]: 0.094 nM | Relative affinity [5]: 19.1 fold vs EVO2 | koff [5]: 0.000197 s⁻¹ | kon [5]: 2.1e+06 M⁻¹ s⁻¹ | IC50, enzyme activity on synthetic substrate (MASP-1): 6500 nM | IC50, enzyme activity on synthetic substrate (fIXa): 2600 nM | IC50, enzyme activity on synthetic substrate (fXIIa): 3300 nM | IC50, enzyme activity on synthetic substrate (fXIa [6]): 500 nM | IC50, lectin pathway C4 deposition, rat serum [7]: 8.1 nM | Relative potency, lectin pathway, rat serum [7]: 13.1 fold vs EVO2 | IC50, lectin pathway C4 deposition, human serum [8]: 2.9 nM | Relative potency, lectin pathway, human serum [8]: 47.1 fold vs EVO2

B3: EVO24 (designed binder)
chain: B1 chain with G34Y, V46E
modifications: not fully specified; cysteine pairing not given here
notes: as for B1
Ki [9]: 0.36 nM | Ki [10]: 0.34 nM | Kd [4]: 0.289 nM | Relative affinity [4]: 12.6 fold vs EVO2 | koff [4]: 0.000327 s⁻¹ | kon [4]: 1.13e+06 M⁻¹ s⁻¹ | Kd [5]: 0.276 nM | Relative affinity [5]: 6.5 fold vs EVO2 | koff [5]: 0.000622 s⁻¹ | kon [5]: 2.25e+06 M⁻¹ s⁻¹ | IC50, enzyme activity on synthetic substrate (MASP-1): 9500 nM | IC50, enzyme activity on synthetic substrate (fIXa): 123000 nM | IC50, enzyme activity on synthetic substrate (fXIIa): 16100 nM | IC50, enzyme activity on synthetic substrate (fXIa [6]): 500 nM | IC50, lectin pathway C4 deposition, rat serum [7]: 6.6 nM | Relative potency, lectin pathway, rat serum [7]: 16.2 fold vs EVO2 | IC50, lectin pathway C4 deposition, human serum [8]: 7.6 nM | Relative potency, lectin pathway, human serum [8]: 18.1 fold vs EVO2

B4: EVO214 (designed binder)
chain: B1 chain with R19L
modifications: not fully specified; ends and bridges not checked
notes: as for B1
Kd [4]: 0.117 nM | Relative affinity [4]: 31 fold vs EVO2 | koff [4]: 7.19e-05 s⁻¹ | kon [4]: 614000 M⁻¹ s⁻¹ | Kd [5]: 0.038 nM | Relative affinity [5]: 47.6 fold vs EVO2 | koff [5]: 4.78e-05 s⁻¹ | kon [5]: 1.27e+06 M⁻¹ s⁻¹ | IC50, enzyme activity on synthetic substrate (MASP-1): 9600 nM | IC50, enzyme activity on synthetic substrate (fIXa): 24000 nM | IC50, enzyme activity on synthetic substrate (fXIIa): 3700 nM | IC50, enzyme activity on synthetic substrate (fXIa [6]): 200 nM | IC50, lectin pathway C4 deposition, rat serum [7]: 11.2 nM | Relative potency, lectin pathway, rat serum [7]: 9.5 fold vs EVO2 | IC50, lectin pathway C4 deposition, human serum [8]: 4.3 nM | Relative potency, lectin pathway, human serum [8]: 32.4 fold vs EVO2

— patent US20260098080A1, “A MODIFIED PROTEIN SCAFFOLD AND USE THEREOF” (EVOLVERITAS BIOTECHNOLÓGIAI KORLÁTOLT FELELOSSÉGU TÁRSASÁG, priority 2022, published 2026)
